The assay has as its target T1, FcγRIa (human, UniProt P12314 16-292).
T1 construct: extracellular domain; also called FcgRI; CD64
The experiment in a line: SPR; vs GpH7-A5/GpH7-B3/GpL16-k0=100.

T1 sequence (P12314 16-292): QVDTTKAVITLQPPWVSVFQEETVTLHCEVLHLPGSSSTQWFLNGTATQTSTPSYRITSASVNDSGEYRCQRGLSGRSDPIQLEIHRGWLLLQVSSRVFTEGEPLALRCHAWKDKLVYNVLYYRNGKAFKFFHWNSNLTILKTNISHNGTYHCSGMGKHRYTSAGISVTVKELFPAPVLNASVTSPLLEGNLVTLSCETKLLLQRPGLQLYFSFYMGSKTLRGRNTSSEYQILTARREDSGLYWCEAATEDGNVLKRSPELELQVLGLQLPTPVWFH

B1: GpH7-A5/GpH7-B3 variant E269_05P/GpL16-k0 (antibody, human IgG1, kappa)
heavy 1: not shown
heavy 2: not shown
light: DIVMTQSPLSLPVTPGEPASISCQASESLVHSNRNTYLHWYLQKPGQSPQLLIYKVSNRFSGVPDRFSGSGSGTDFTLKISRVEAEDVGVYYCSQNTHVPPTFGQGTKVEIERTVAAPSVFIFPPSDEQLKSGTASVVCLLNNFYPREAKVQWKVDNALQSGNSQESVTEQDSKDSTYSLSSTLTLSKADYEKHKVYACEVTHQGLSSPVTKSFNRGEC
notes: heterodimerized; also called He Ab E269_05P
Turning to B1, the He/Con_1a was 102 % of control.

B2: GpH7-A5/GpH7-B3 variant E269_01G/GpL16-k0 (antibody, human IgG1, kappa)
heavy 1: not shown
heavy 2: not shown
light: B1 light
notes: heterodimerized; also called He Ab E269_01G
As for B2, the He/Con_1a is 104 % of control.

B3: GpH7-A5/GpH7-B3 variant E269_07I/GpL16-k0 (antibody, human IgG1, kappa)
heavy 1: not shown
heavy 2: not shown
light: B1 light
notes: heterodimerized; also called He Ab E269_07I
For the molecule B3, the He/Con_1a is 103 % of control.

B4: GpH7-A5/GpH7-B3 variant E333_07I/GpL16-k0 (antibody, human IgG1, kappa)
heavy 1: not shown
heavy 2: not shown
light: B1 light
notes: heterodimerized; also called He Ab E333_07I
On to B4, for which the He/Con_1a was 102 % of control.

B5: GpH7-A5/GpH7-B3 variant E269_14T/GpL16-k0 (antibody, human IgG1, kappa)
heavy 1: not shown
heavy 2: not shown
light: B1 light
notes: heterodimerized; also called He Ab E269_14T
Regarding B5, the He/Con_1a was 106 % of control.

B6: GpH7-A5/GpH7-B3 variant E269_16H/GpL16-k0 (antibody, human IgG1, kappa)
heavy 1: not shown
heavy 2: not shown
light: B1 light
notes: heterodimerized; also called He Ab E269_16H
In the case of B6, the He/Con_1a was 106 % of control.

B7: GpH7-A5/GpH7-B3 variant E333_11K/GpL16-k0 (antibody, human IgG1, kappa)
heavy 1: not shown
heavy 2: not shown
light: B1 light
notes: heterodimerized; also called He Ab E333_11K
Regarding B7, the He/Con_1a is 102 % of control.

B8: GpH7-A5/GpH7-B3 variant H268_02A/GpL16-k0 (antibody, human IgG1, kappa)
heavy 1: not shown
heavy 2: not shown
light: B1 light
notes: heterodimerized; also called He Ab H268_02A
Turning to B8, the He/Con_1a is 109 % of control.

B9: GpH7-A5/GpH7-B3 variant H268_14T/GpL16-k0 (antibody, human IgG1, kappa)
heavy 1: not shown
heavy 2: not shown
light: B1 light
notes: heterodimerized; also called He Ab H268_14T
For B9, the He/Con_1a is 112 % of control.

B10: GpH7-A5/GpH7-B3 variant E269_09D/GpL16-k0 (antibody, human IgG1, kappa)
heavy 1: not shown
heavy 2: not shown
light: B1 light
notes: heterodimerized; also called He Ab E269_09D
With B10, the He/Con_1a was 107 % of control.

B11: GpH7-A5/GpH7-B3 variant E269_15Y/GpL16-k0 (antibody, human IgG1, kappa)
heavy 1: not shown
heavy 2: not shown
light: B1 light
notes: heterodimerized; also called He Ab E269_15Y
Turning to B11, the He/Con_1a was 106 % of control.

B12: GpH7-A5/GpH7-B3 variant A330_16H/GpL16-k0 (antibody, human IgG1, kappa)
heavy 1: not shown
heavy 2: not shown
light: B1 light
notes: heterodimerized; also called He Ab A330_16H
With B12, the He/Con_1a was 106 % of control.

B13: GpH7-A5/GpH7-B3 variant E269_18N/GpL16-k0 (antibody, human IgG1, kappa)
heavy 1: not shown
heavy 2: not shown
light: B1 light
notes: heterodimerized; also called He Ab E269_18N
On to B13, for which the He/Con_1a was 102 % of control.

B14: GpH7-A5/GpH7-B3 variant H268_08L/GpL16-k0 (antibody, human IgG1, kappa)
heavy 1: not shown
heavy 2: not shown
light: B1 light
notes: heterodimerized; also called He Ab H268_08L
Regarding B14, the He/Con_1a is 107 % of control.

B15: GpH7-A5/GpH7-B3 variant E333_09D/GpL16-k0 (antibody, human IgG1, kappa)
heavy 1: not shown
heavy 2: not shown
light: B1 light
notes: heterodimerized; also called He Ab E333_09D
B15: the He/Con_1a is 104 % of control.

B16: GpH7-A5/GpH7-B3 variant E333_05P/GpL16-k0 (antibody, human IgG1, kappa)
heavy 1: not shown
heavy 2: not shown
light: B1 light
notes: heterodimerized; also called He Ab E333_05P
For the molecule B16, the He/Con_1a was 102 % of control.

B17: GpH7-A5/GpH7-B3 variant A330_11K/GpL16-k0 (antibody, human IgG1, kappa)
heavy 1: not shown
heavy 2: not shown
light: B1 light
notes: heterodimerized; also called He Ab A330_11K
Take B17: the He/Con_1a was 103 % of control.

B18: GpH7-A5/GpH7-B3 variant I332_12R/GpL16-k0 (antibody, human IgG1, kappa)
heavy 1: not shown
heavy 2: not shown
light: B1 light
notes: heterodimerized; also called He Ab I332_12R
Turning to B18, the He/Con_1a is 100 % of control.

B19: GpH7-A5/GpH7-B3 variant E333_04F/GpL16-k0 (antibody, human IgG1, kappa)
heavy 1: not shown
heavy 2: not shown
light: B1 light
notes: heterodimerized; also called He Ab E333_04F
In the case of B19, the He/Con_1a is 102 % of control.

B20: GpH7-A5/GpH7-B3 variant I336_02A/GpL16-k0 (antibody, human IgG1, kappa)
heavy 1: not shown
heavy 2: not shown
light: B1 light
notes: heterodimerized; also called He Ab I336_02A
For B20, the He/Con_1a is 106 % of control.

B21: GpH7-A5/GpH7-B3 variant E269_13S/GpL16-k0 (antibody, human IgG1, kappa)
heavy 1: not shown
heavy 2: not shown
light: B1 light
notes: heterodimerized; also called He Ab E269_13S
As for B21, the He/Con_1a is 103 % of control.

B22: GpH7-A5/GpH7-B3 variant I336_10E/GpL16-k0 (antibody, human IgG1, kappa)
heavy 1: not shown
heavy 2: not shown
light: B1 light
notes: heterodimerized; also called He Ab I336_10E
Regarding B22, the He/Con_1a was 108 % of control.

B23: GpH7-A5/GpH7-B3 variant E333_08L/GpL16-k0 (antibody, human IgG1, kappa)
heavy 1: not shown
heavy 2: not shown
light: B1 light
notes: heterodimerized; also called He Ab E333_08L
For B23, the He/Con_1a is 102 % of control.

B24: GpH7-A5/GpH7-B3 variant E333_01G/GpL16-k0 (antibody, human IgG1, kappa)
heavy 1: not shown
heavy 2: not shown
light: B1 light
notes: heterodimerized; also called He Ab E333_01G
Regarding B24, the He/Con_1a was 103 % of control.

B25: GpH7-A5/GpH7-B3 variant H268_12R/GpL16-k0 (antibody, human IgG1, kappa)
heavy 1: not shown
heavy 2: not shown
light: B1 light
notes: heterodimerized; also called He Ab H268_12R
Regarding B25, the He/Con_1a is 106 % of control.

B26: GpH7-A5/GpH7-B3 variant I336_03V/GpL16-k0 (antibody, human IgG1, kappa)
heavy 1: not shown
heavy 2: not shown
light: B1 light
notes: heterodimerized; also called He Ab I336_03V
In the case of B26, the He/Con_1a is 105 % of control.

B27: GpH7-A5/GpH7-B3 variant G236_02A/GpL16-k0 (antibody, human IgG1, kappa)
heavy 1: not shown
heavy 2: not shown
light: B1 light
notes: heterodimerized; also called He Ab G236_02A
In the case of B27, the He/Con_1a was 100 % of control.

B28: GpH7-A5/GpH7-B3 variant A330_09D/GpL16-k0 (antibody, human IgG1, kappa)
heavy 1: not shown
heavy 2: not shown
light: B1 light
notes: heterodimerized; also called He Ab A330_09D
For B28, the He/Con_1a is 109 % of control.

Source of the values: patent publication US20180155451A1 (published 2018).
